# Reference: patent US20220251236A1 (Boehringer Ingelheim, published 2022)
# Positions count from the first letter of the chain named.
# B1: DLL3#3/CD3#2 (bispecific antibody, human IgG1, kappa, lambda, L234A L235A)
# chain 1: DIQMTQSPSAMSASVGDRVTITCRASQGISNYLVWFQQKPGKAPKRLIYAVSSLYSGVPSRFSGSGSGTEFTLTISSLQPEDFATYYCLQHDSYPYTFGQGTKLEIKRTVAAPSVFIFPPSDEQLKSGTASVVCLLNNFYPREAKVQWKVDNALQSGNSQESVTEQDSKDSTYSLSSTLTLSKADYEKHKVYACEVTHQGLSSPVTKSFNRGECGGGGSEGKSSGSGSESKSTEGKSSGSGSESKSTGGGGSQVQLVQSGAEVKKPGASVKVSCKASGYTFTSYYVHWVRQAPGQGLEWMVIINPGGGTTSYAQKFLGRVTMTRDTSTNTVYMELKSLRSEDTAVYYCARGEAVTGNYFYYGMDVWGQGTTVTVSSASTKGPSVFPLAPSSKSTSGGTAALGCLVKDYFPEPVTVSWNSGALTSGVHTFPAVLQSSGLYSLSSVVTVPSSSLGTQTYICNVNHKPSNTKVDKRVEPKSCDKTHTCPPCPAPEAAGGPSVFLFPPKPKDTLMISRTPEVTCVVVDVSHEDPEVKFNWYVDGVEVHNAKTKPREEQYNSTYRVVSVLTVLHQDWLNGKEYKCKVSNKALPAPIEKTISKAKGQPREPQVYTLPPSREEMTKNQVSLWCLVKGFYPSDIAVEWESNGQPENNYKTTPPVLDSDGSFFLYSKLTVDKSRWQQGNVFSCSVMHEALHNHYTQKSLSLSPG
# chain 2: EAVVTQEPSLTVSPGGTVTLTCRSSTGAVTTSNYANWVQEKPGQLPRGLIGGTNKRAPWVPARFSGSLLGGKAALTLSGAQPEDEAEYFCALWYSNLWVFGGGTKLTVLGQPKAAPSVTLFPPSSEELQANKATLVCLISDFYPGAVKVAWKADGSPVNTGVETTTPSKQSNNKYAASSYLSLTPEQWKSHRSYSCQVTHEGSTVEKTVAPAECSGGGGSEGKSSGSGSESKSTEGKSSGSGSESKSTGGGGSEVQLVESGGGLVQPGGSLKLSCAASGFTFNTYAMNWVRQAPGKGLEWVARIRSKYINYATYYADSVKDRFTISRDDSKNTAYLQMNNLKTEDTAVYYCVRHGNFGNSYVSWFAYWGQGTLVTVSAASTKGPSVFPLAPSSKSTSGGTAALGCLVKDYFPEPVTVSWNSGALTSGVHTFPAVLQSSGLYSLSSVVTVPSSSLGTQTYICNVNHKPSNTKVDKRVEPKSCDKTHTCPPCPAPEAAGGPSVFLFPPKPKDTLMISRTPEVTCVVVDVSHEDPEVKFNWYVDGVEVHNAKTKPREEQYNSTYRVVSVLTVLHQDWLNGKEYKCKVSNKALPAPIEKTISKAKGQPREPQVYTLPPSREEMTKNQVSLSCAVKGFYPSDIAVEWESNGQPENNYKTTPPVLDSDGSFFLVSKLTVDKSRWQQGNVFSCSVMHEALHNRFTQKSLSLSPG
# notes: Heterodimer of one DLL3 chain and one CD3 chain (scFab-Fc, knob-in-hole)
# B2: DLL3#4/CD3#1 (bispecific antibody, human IgG1, kappa, lambda, L234A L235A)
# chain 1: not shown
# chain 2: B1 chain 2 with I309N
# notes: as for B1
# B3: DLL3#6/CD3#1 (bispecific antibody, human IgG1, kappa, lambda, L234A L235A)
# chain 1: DIQLTQSPSFLSTSVGDRVTITCRASQDISNYFAWYQQKPGKAPKLLIYAASTLQSGVPSRFSGGGSGTEFTLTISSLQPEDFATYYCQQLNSYPYTFGQGTKLEIKRTVAAPSVFIFPPSDEQLKSGTASVVCLLNNFYPREAKVQWKVDNALQSGNSQESVTEQDSKDSTYSLSSTLTLSKADYEKHKVYACEVTHQGLSSPVTKSFNRGECGGGGSEGKSSGSGSESKSTEGKSSGSGSESKSTGGGGSQVQLQESGPGLVKPSETLSLTCTVSGGSISSYFWSWIRQPAGKGLEWIGRIYTSGSTNYNPSLNSRLTMSVDTSKNQFSLKLSSVTAADTAVYYCARRGDWGGFDIWGQGTVVTVSSASTKGPSVFPLAPSSKSTSGGTAALGCLVKDYFPEPVTVSWNSGALTSGVHTFPAVLQSSGLYSLSSVVTVPSSSLGTQTYICNVNHKPSNTKVDKRVEPKSCDKTHTCPPCPAPEAAGGPSVFLFPPKPKDTLMISRTPEVTCVVVDVSHEDPEVKFNWYVDGVEVHNAKTKPREEQYNSTYRVVSVLTVLHQDWLNGKEYKCKVSNKALPAPIEKTISKAKGQPREPQVYTLPPSREEMTKNQVSLWCLVKGFYPSDIAVEWESNGQPENNYKTTPPVLDSDGSFFLYSKLTVDKSRWQQGNVFSCSVMHEALHNHYTQKSLSLSPG
# chain 2: B1 chain 2 with I309N
# notes: as for B1
# B4: DLL3#5/CD3#1 (bispecific antibody, human IgG1, kappa, lambda, L234A L235A)
# chain 1: not shown
# chain 2: B1 chain 2 with I309N
# notes: as for B1
# Biological target: T1, EGF1+2
# T1 construct: also called Hu DLL3 EGF1+2 on HEK293 cells
# T1 membrane-anchored DLL3 subdomain construct: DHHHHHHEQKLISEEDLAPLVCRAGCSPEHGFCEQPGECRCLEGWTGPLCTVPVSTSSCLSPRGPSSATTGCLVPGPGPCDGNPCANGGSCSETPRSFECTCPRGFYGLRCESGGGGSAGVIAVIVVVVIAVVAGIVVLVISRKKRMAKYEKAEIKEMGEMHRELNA
# Assay: flow cytometry on HEK293 cells expressing the DLL3 subdomain construct, PE anti-human secondary, control: secondary antibody only
# In short: (§1)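 Binders tested on HEK293 cells displaying the DLL3 subdomain construct; bound molecules detected by flow cytometry using PE-conjugated anti-human secondary antibody. Negative control: cells with secondary antibody only.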
row,Binder,binding result
1,B1,no binding (tested: 1.6 nM)
2,B2,no binding (tested: 1.6 nM)
3,B3,no binding (tested: 1.6 nM)

# Biological target: T2, EGF3+4
# T2 construct: also called Hu DLL3 EGF3+4 on HEK293 cells
# T2 membrane-anchored DLL3 subdomain construct: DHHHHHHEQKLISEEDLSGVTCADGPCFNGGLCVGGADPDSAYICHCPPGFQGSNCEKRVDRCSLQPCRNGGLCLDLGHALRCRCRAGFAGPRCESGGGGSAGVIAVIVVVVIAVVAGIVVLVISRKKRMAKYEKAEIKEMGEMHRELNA
# Assay: as above
# In short: as §1
row,Binder,binding result
1,B1,no binding (tested: 1.6 nM)
2,B4,no binding (tested: 1.6 nM)
3,B3,no binding (tested: 1.6 nM)

# Biological target: T3, EGF6+MEMBRANE PROXIMAL PEPTIDE
# T3 construct: also called Hu DLL3 EGF6+membrane proximal peptide on HEK293 cells
# T3 membrane-anchored DLL3 subdomain construct: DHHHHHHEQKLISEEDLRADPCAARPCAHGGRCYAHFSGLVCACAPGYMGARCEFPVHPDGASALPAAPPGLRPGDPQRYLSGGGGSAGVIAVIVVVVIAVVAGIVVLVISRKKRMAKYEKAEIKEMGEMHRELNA
# Assay: as above
# In short: as §1
row,Binder,binding result
1,B2,no binding (tested: 1.6 nM)
2,B4,no binding (tested: 1.6 nM)
3,B3,no binding (tested: 1.6 nM)

# Biological target: T4, EGF4+5
# T4 construct: also called Hu DLL3 EGF4+5 on HEK293 cells
# T4 membrane-anchored DLL3 subdomain construct: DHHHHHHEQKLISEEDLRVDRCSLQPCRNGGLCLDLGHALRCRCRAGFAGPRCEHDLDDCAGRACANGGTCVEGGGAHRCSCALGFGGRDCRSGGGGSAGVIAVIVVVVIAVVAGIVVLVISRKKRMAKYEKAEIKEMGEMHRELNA
# Assay: as above
# In short: as §1
row,Binder,binding result
1,B1,no binding (tested: 1.6 nM)
2,B4,no binding (tested: 1.6 nM)
3,B3,no binding (tested: 1.6 nM)

# Biological target: T5, EGF2+3
# T5 construct: also called Hu DLL3 EGF2+3 on HEK293 cells
# T5 membrane-anchored DLL3 subdomain construct: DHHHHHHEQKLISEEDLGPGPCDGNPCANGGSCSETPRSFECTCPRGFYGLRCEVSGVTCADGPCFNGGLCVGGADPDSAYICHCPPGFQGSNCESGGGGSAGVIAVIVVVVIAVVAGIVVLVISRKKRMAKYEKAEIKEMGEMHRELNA
# Assay: as above
# In short: as §1
row,Binder,binding result
1,B1,no binding (tested: 1.6 nM)
2,B2,no binding (tested: 1.6 nM)
3,B4,no binding (tested: 1.6 nM)
4,B3,no binding (tested: 1.6 nM)

# Biological target: T6, EGF5+6
# T6 construct: also called Hu DLL3 EGF5+6 on HEK293 cells
# T6 membrane-anchored DLL3 subdomain construct: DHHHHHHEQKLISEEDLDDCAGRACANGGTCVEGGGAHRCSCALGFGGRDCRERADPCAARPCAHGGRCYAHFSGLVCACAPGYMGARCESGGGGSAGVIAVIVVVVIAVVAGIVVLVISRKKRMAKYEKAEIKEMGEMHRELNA
# Assay: as above
# In short: as §1
row,Binder,binding result
1,B1,no binding (tested: 1.6 nM)
2,B2,no binding (tested: 1.6 nM)
3,B4,no binding (tested: 1.6 nM)
4,B3,no binding (tested: 1.6 nM)

# Biological target: T7, human DLL3 (endogenous, on SCLC cell lines NCI-H82 and SHP77 and in SCLC tissue) (human, UniProt Q9NYJ7 27-618)
# T7 construct: whole, on cells; also called SCLC cell lines expressing DLL3
# T7 sequence (looked up): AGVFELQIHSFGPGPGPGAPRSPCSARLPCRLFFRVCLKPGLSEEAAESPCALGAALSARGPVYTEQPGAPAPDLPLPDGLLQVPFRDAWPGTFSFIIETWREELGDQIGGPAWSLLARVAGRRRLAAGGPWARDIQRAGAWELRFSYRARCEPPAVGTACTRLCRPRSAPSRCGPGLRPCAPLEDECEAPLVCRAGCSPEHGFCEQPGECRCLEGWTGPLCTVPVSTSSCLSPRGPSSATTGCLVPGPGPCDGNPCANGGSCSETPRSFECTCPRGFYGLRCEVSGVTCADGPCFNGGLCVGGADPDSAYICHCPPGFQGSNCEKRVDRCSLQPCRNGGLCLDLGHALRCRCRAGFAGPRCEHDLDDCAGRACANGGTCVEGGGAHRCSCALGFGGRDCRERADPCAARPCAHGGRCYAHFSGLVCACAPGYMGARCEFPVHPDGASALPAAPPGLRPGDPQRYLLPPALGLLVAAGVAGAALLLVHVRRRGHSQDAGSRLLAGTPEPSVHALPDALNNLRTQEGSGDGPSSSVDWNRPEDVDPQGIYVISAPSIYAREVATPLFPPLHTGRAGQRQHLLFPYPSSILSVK
# Assay: flow cytometry titration on SHP77 cells, PE anti-human secondary, x-fold over background
# Text: Cells (T cells or human SCLC cells) were stained with increasing concentrations of two-step purified DLL3/CD3 binding proteins with increasing concentrations in FACS buffer (PBS/0.5% BSA/0.05% sodium azide). Bound molecules were detected with PE-conjugated anti-human secondary antibody (Sigma-Aldrich, #P8047).
row,Binder,EC50 (read off the curve) [nM]
1,B2,~0.3
2,B4,~1
3,B3,~2

# Biological target: T8, trypsin inhibitor from glycine max soybean (Glycine max (soybean))
# T8 construct: also called Tryp
# T8 sequence (P01070 25-205): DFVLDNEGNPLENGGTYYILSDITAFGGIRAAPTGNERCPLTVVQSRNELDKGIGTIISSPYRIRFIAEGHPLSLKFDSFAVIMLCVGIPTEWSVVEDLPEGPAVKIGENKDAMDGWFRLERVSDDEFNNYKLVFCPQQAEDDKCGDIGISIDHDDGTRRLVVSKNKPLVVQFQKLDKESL
# Assay: SPR (Biacore T200), trypsin inhibitor on CM5 chip, sample at 1 µM
# Text: To prepare the surface for the non-specific binding experiment, chicken egg white lysozyme and trypsin inhibitor from glycine max soybean were coupled manually to a series S CM5 chip with the surface density of 3000-5000 RU using the amine coupling kit according to the manufacture instructions.
row,Binder,Non-specific binding (RU)
1,B1,36
2,B2,37
3,B4,0
4,B3,0
